According to the Human Domainome abundance scans (Beltran et al. 2025):
± gives the uncertainty stated by the source.

B1: Gamma-crystallin C, residues 4 to 79; numbered along this chain, P07315 (parent)
chain: ITFYEDRAFQGRSYETTTDCPNLQPYFSRCNSIRVESGCWMLYERPNYQGQQYLLRRGEYPDYQQWMGLSDSIRSC

Variants of: B1
Test: abundance fitness (aPCA) (normalised: wild type 0, dead -1); higher = more abundant; growth selection in yeast, the domain comes from the species named
Conditions: Homo sapiens

Variant	abundance fitness
N22E	-0.1 ± 0.13
N22A	-0.041 ± 0.088
N22D	-0.004 ± 0.13
N22Q	-0.046 ± 0.12
N22K	0.064 ± 0.072
N22L	0.036 ± 0.076
N22Y	0.079 ± 0.14
S75H	-0.88 ± 0.29
S75Q	-0.327 ± 0.21
S75W	-0.875 ± 0.24
S75L	0.044 ± 0.068
S75G	-0.069 ± 0.062
S75D	-0.836 ± 0.41
S75P	-0.66 ± 0.12
S75A	-0.054 ± 0.093
E5Q	-0.076 ± 0.17
E5L	-0.334 ± 0.16
E5G	-0.124 ± 0.055
E5I	0.122 ± 0.2
Y53N	-0.062 ± 0.38
Y53R	-0.019 ± 0.058
Y53I	0.131 ± 0.26
T16I	-0.098 ± 0.13
T16Y	0.202 ± 0.17

Variant	abundance fitness
T16G	-0.089 ± 0.058
T16L	0.013 ± 0.086
T16V	0.031 ± 0.083
T16A	0.074 ± 0.091
T17I	-0.227 ± 0.2
S32K	-0.953 ± 0.17
S32I	-0.805 ± 0.43
S32A	-0.101 ± 0.087
S32D	-0.812 ± 0.36
P21G	0.053 ± 0.055
P21M	0.075 ± 0.099
P21K	0.016 ± 0.12
P21N	0.112 ± 0.18
G38I	-0.202 ± 0.15
G38K	-0.177 ± 0.17
G38L	-0.177 ± 0.091
G38D	0.171 ± 0.11
G38S	0 ± 0.092
L55N	-0.85 ± 0.39
L55H	-1.03 ± 0.39
L55K	-0.853 ± 0.35
L55D	-0.807 ± 0.32
L55F	-0.246 ± 0.1
L55W	-0.631 ± 0.26

Variant	abundance fitness
L55R	-0.794 ± 0.15
R7P	0.219 ± 0.3
R7K	-0.141 ± 0.2
R7I	-0.141 ± 0.31
R7Y	-0.266 ± 0.24
R7S	-0.117 ± 0.11
S72C	-0.082 ± 0.13
S72I	0.007 ± 0.17
S72P	-0.025 ± 0.14
S72R	0.01 ± 0.07
S72H	-0.172 ± 0.17
S28D	0.166 ± 0.47
S28P	-0.115 ± 0.12
D6Q	0.086 ± 0.22
D6R	0.003 ± 0.059
D6T	0.057 ± 0.13
D6W	-0.208 ± 0.072
D6P	-0.819 ± 0.45
D6L	0.032 ± 0.083
D6K	0.086 ± 0.23
R56Q	-0.003 ± 0.2
R56V	0.039 ± 0.088
R56A	-0.019 ± 0.088
R56Y	0.255 ± 0.24

Variant	abundance fitness
R56D	-0.107 ± 0.15
R56N	0.034 ± 0.33
R56T	0.071 ± 0.085
Q52M	-0.108 ± 0.21
Q52T	-0.114 ± 0.13
Q52D	0.102 ± 0.3
V35W	-1.08 ± 0.44
V35E	-1.11 ± 0.27
V35R	-0.893 ± 0.42
Y63F	0.032 ± 0.19
Y63G	-0.041 ± 0.067
Y63H	-0.234 ± 0.15
Y14H	-0.117 ± 0.12
Y14F	0.114 ± 0.14
Y14W	0.112 ± 0.09
Y14P	-0.922 ± 0.19
Y14R	-0.05 ± 0.054
Y14C	-0.227 ± 0.15
Y14E	-0.375 ± 0.12
Y14N	-0.154 ± 0.23
Y14D	-0.895 ± 0.26
Y14S	-0.042 ± 0.079
Q65V	-0.041 ± 0.09
Q65D	-0.019 ± 0.085

Variant	abundance fitness
Q65K	-0.175 ± 0.22
Q65N	0.014 ± 0.14
Q65L	-0.088 ± 0.064
Q65E	0.052 ± 0.073
Q65F	-0.253 ± 0.13
Q65T	-0.089 ± 0.057
Q65M	0.015 ± 0.24
Q65P	0.027 ± 0.1
G50V	-0.788 ± 0.23
G50L	-0.894 ± 0.27
G50K	-0.574 ± 0.25
G50R	-0.555 ± 0.08
C20G	-0.058 ± 0.07
C20D	0.169 ± 0.052
C20K	-0.243 ± 0.32
C20V	-0.133 ± 0.076
C20L	-0.042 ± 0.057
Q24W	0.034 ± 0.075
Q24K	-0.048 ± 0.12
Q24A	-0.109 ± 0.082
Q24Y	0.011 ± 0.24
Q24L	0.116 ± 0.12
Q24P	-0.308 ± 0.21
Q24E	0.125 ± 0.19

Variant	abundance fitness
Q10N	-0.094 ± 0.13
Q10M	-0.228 ± 0.11
Q10H	0.124 ± 0.24
A8D	-0.275 ± 0.24
A8V	-0.064 ± 0.069
A8R	-0.005 ± 0.061
A8I	0.001 ± 0.18
A8S	-0.016 ± 0.14
A8P	-0.312 ± 0.16
A8T	-0.016 ± 0.14
A8G	0.053 ± 0.1
A8Q	0.007 ± 0.11
A8M	0.013 ± 0.12
R57W	-0.143 ± 0.11
R57M	0.07 ± 0.29
R57Q	0.044 ± 0.14
R57T	0.244 ± 0.35
R57G	0.051 ± 0.066
D62N	-0.043 ± 0.1
D62Y	-0.037 ± 0.12
D62R	-0.034 ± 0.057
D62G	-0.013 ± 0.04
D62T	-0.055 ± 0.097
D62H	-0.106 ± 0.096

Variant	abundance fitness
D71F	-0.132 ± 0.16
D71T	-0.059 ± 0.12
D71Q	-0.121 ± 0.14
D71P	-0.135 ± 0.071
W66I	-0.006 ± 0.11
W66N	0.091 ± 0.15
W66F	-0.009 ± 0.11
D19C	-0.052 ± 0.15
D19E	-0.063 ± 0.095
D19R	-0.027 ± 0.075
E44P	-0.283 ± 0.15
E44F	-0.414 ± 0.31
E44V	-0.147 ± 0.11
E44H	-0.137 ± 0.16
W40R	-0.969 ± 0.13
W40G	-0.435 ± 0.063
R45L	-0.146 ± 0.13
R45Q	-0.13 ± 0.33
R45M	-0.001 ± 0.1
R45Y	0.187 ± 0.27
R45K	0.089 ± 0.12
R74E	-0.021 ± 0.066
R74N	0.107 ± 0.14
